In patent publication US20260258123A1 (MOMENTA PHARMACEUTICALS, published 2026):

Experiments:
[1] = molecular target: T1, cynomolgus monkey FcRn extracellular domain, GPI-linked, on the surface of HEK 293 cells (cynomolgus monkey, UniProt Q8SPV9 24-297; Q8SPW0 21-119, C-terminal engineered GPI linkage); assay: competition flow cytometry on HEK 293 cells with cell-surface GPI-linked cynomolgus monkey FcRn at pH 6.0; inhibition of the binding of 66 nM fluorescent probe-labeled non-specific IgG; readout cell bound IgG (MFI)
T1 construct: extracellular domain; b2m is not mentioned for these cells

[2] = molecular target: T2, endogenous human FcRn in cells (human, UniProt P55899 24-365); assay: FcRn occupancy in HUVECs: unlabeled N027 for 1 hour at 37 C, free FcRn stained with VivoTag645-N027, flow cytometry
T2 construct: whole, on cells; Mostly intracellular (endosomal); cells were fixed and permeabilised before staining in most assays. b2m is not mentioned; also called endogenously expressed human FcRn; FcRn in THP-1 cells, HAECs, HUVECs and HVTs

[3] = molecular target: T2, endogenous human FcRn in cells; assay: flow cytometry on fixed and permeabilised THP-1 cells (endogenous human FcRn), pH 7.4
[4] = molecular target: T2, endogenous human FcRn in cells; assay: FcRn occupancy in HAECs: unlabeled N027 for 1 hour at 37 C, free FcRn stained with VivoTag645-N027, flow cytometry
[5] = molecular target: T3, recombinant human FcRn (rhFcRn) (human, UniProt P55899 24-297; P16213 21-119); assay: SPR method of Example 2; differs from the 19.4 pM of Table 3
[6] = molecular target: T3, recombinant human FcRn (rhFcRn); assay: SPR (ProteOn XPR 36), mAb captured on anti-human Fc, rhFcRn as analyte, pH 7.4, 298K
[7] = molecular target: T2, endogenous human FcRn in cells; assay: FcRn occupancy in HVTs: unlabeled N027 for 1 hour at 37 C, free FcRn stained with VivoTag645-N027, flow cytometry
[8] = molecular target: T2, endogenous human FcRn in cells; assay: cell-based or functional assay

EC50 [1] [nM]	IC50 [2] [µg/mL]	EC50 [3] [nM]	IC50 [4] [µg/mL]	Kd [5] [nM]	Kd [6] [nM]	koff [6] [s⁻¹]	kon [6] [M⁻¹ s⁻¹]	IC50 [7] [µg/mL]	intracellular IgG accumulation (VivoTag645-IgG, flow cytometry), ~IC50, HAECs [8] [µg/mL]	intracellular IgG accumulation (VivoTag645-IgG, flow cytometry), ~IC50, HUVECs [8] [µg/mL]	intracellular IgG accumulation (VivoTag645-IgG, flow cytometry), ~IC50, HVTs [8] [µg/mL]	Binder
4.46	0.15	3	0.23	0.0193	0.0194	2.31e-05	1.19e+06	0.15	~0.12	~0.15	~0.07	N027 (antibody, human IgG1, lambda, N297A, IgG1, lambda light chain; Fluorophore-labelled forms served as detection reagent in the occupancy assays; also called anti-FcRn antibody N027; VivoTag645-labeled N027) heavy: not shown light: QSALTQPASVSGSPGQSITISCTGTGSDVGSYNLVSWYQQHPGKAPKLMIYGDSERPSGVSNRFSGSKSGNTASLTISGLQAEDEADYYCSSYAGSGIYVFGTGTKVTVLGQPKAAPSVTLFPPSSEELQANKATLVCLISDFYPGAVTVAWKADSSPVKAGVETTTPSKQSNNKYAASSYLSLTPEQWKSHKSYSCQVTHEGSTVEKTVAPTECS
4.8					0.031	4.42e-05	1.42e+06					N022 (antibody, human IgG1, lambda, N297A, also called anti-FcRn antibody N022) heavy: not shown light: QSALTQPASVSGSPGQSITISCTGTGSDVGSYNLVSWYQQHPGKAPKLMIYGDSERPSGVSNRFSGSKSGNTASLTISGLQAEDEADYYCSSYAGSGIYVFGTGTKVTVLGQPKAAPSVTLFPPSSEELQANKATLVCLISDFYPGAVTVAWKADSSPVKAGVETTTPSKQSNNKYAASSYLSLTPEQWKSHKSYSCQVTHEGSTVEKTVAPTECS
5.16					0.0314	2.91e-05	927000					N023 (antibody, human IgG1, lambda, N297A, also called anti-FcRn antibody N023) heavy: not shown light: QSALTQPASVSGSPGQSITISCTGTGSDVGSYNLVSWYQQHPGKAPKLMIYGDSERPSGVSNRFSGSKSGNTASLTISGLQAEDEADYYCSSYAGSGIYVFGTGTKVTVLGQPKAAPSVTLFPPSSEELQANKATLVCLISDFYPGAVTVAWKADSSPVKAGVETTTPSKQSNNKYAASSYLSLTPEQWKSHKSYSCQVTHEGSTVEKTVAPTECS
3.51					0.0355	4.03e-05	1.13e+06					N024 (antibody, human IgG1, lambda, N297A, IgG1, lambda light chain; also called anti-FcRn antibody N024) heavy: not shown light: QSALTQPASVSGSPGQSITISCTGTGSDVGSYNLVSWYQQHPGKAPKLMIYGDSERPSGVSNRFSGSKSGNTASLTISGLQAEDEADYYCSSYAGSGIYVFGTGTKVTVLGQPKAAPSVTLFPPSSEELQANKATLVCLISDFYPGAVTVAWKADSSPVKAGVETTTPSKQSNNKYAASSYLSLTPEQWKSHKSYSCQVTHEGSTVEKTVAPTECS
2.68					0.0365	4.44e-05	1.22e+06					N026 (antibody, human IgG1, lambda, N297A, IgG1, lambda light chain; also called anti-FcRn antibody N026) heavy: not shown light: QSALTQPASVSGSPGQSITISCTGTGSDVGSYNLVSWYQQHPGKAPKLMIYGDSERPSGVSNRFSGSKSGNTASLTISGLQAEDEADYYCSSYAGSGIYVFGTGTKVTVLGQPKAAPSVTLFPPSSEELQANKATLVCLISDFYPGAVTVAWKADSSPVKAGVETTTPSKQSNNKYAASSYLSLTPEQWKSHKSYSCQVTHEGSTVEKTVAPTECS
